The record followed here is article PMC9118860.

This test concerns the target MTS-LOV2^V416L (membrane-anchored Light-oxygen-voltage-sensing domain 2, V416L variant).

For “Zdk1-N1ICD (Zdark 1 fused to the human NOTCH1 intracellular domain) (designed binder)”, the 12xCSL-Luc luciferase reporter (RLU) in HEK293T cells, 48 h after blue light activation (0.05-s pulses for 1, 3 and 12 h), against LOV2^WT came to 5 fold.
